Laboratory results taken from patent US20210403582A1 (JACOBIO PHARMACEUTICALS, published 2021).

Legend:
[1] = target: T1, human LIF protein (human, UniProt P15018 23-202); test: ELISA, human LIF coated at 1 µg/mL, A450
T1 construct: Bought recombinant protein (Sino Biological / Yiqiao Shenzhou 14890-HNAH) in most assays; also called recombinant human LIF protein; rhLIF
Description: The recombinant human LIF protein was diluted to 1 μg/mL, was coated on the enzyme label plate, 100 μL of the protein was added into every well, and incubated overnight in 4° C. The enzyme label plates were taken out next day, and the liquid was discarded, and were washed with PBST three times and blocked with 2% BSA in PBS for 1 h at room temperature, then washed with PBST three times, and added anti-human LIF antibodies 38E10E1C11, 5D8 and P36-033 at different concentrations and incubated for 1 h at room temperature. The liquid was discarded, and the plates were washed with PBST four times. The plates were added with HRP-labeled goat anti-mouse Fab antibody or goat anti-human FC antibody and incubated for 1 h at room temperature. Then the liquid was discarded, and the plates were washed four times with PBST and incubated with TMB colored solution in 10 minutes at room temperature. Stop color development by adding 2 mol/L H₂SO₄, and the absorption value at 450 nm is quantitated using an automated plate photometer, and the results were shown in FIG. 1.

[2] = target: T1, human LIF protein; test: competition ELISA: human LIF coated at 1 µg/mL, LIFR-Fc 0.6125 µg/mL added together with the antibody, A450
Description: (§1) The recombinant human LIF protein was coated on the enzyme label plate at a concentration of 1 μg/mL, LIFR protein (expressed fusedly with human FC) at a concentration of 0.6125 μg/mL was added (50 μL/well), and the anti-human LIF antibodies 38E10E1C11, P36-033 and 38E10E1C11R which is recombinantly expressed by CHO cells (SEQ ID NOs: 41 and 43) at different concentrations simultaneously were added separately (50 μL/well) and incubated for 2 h at room temperature. After washed four times with PBST, incubated with HRP-labeled goat anti-mouse FC secondary antibody for 1 h at room temperature. Then the plates were washed four times with PBST and added with TMB coloured solution in for 10 minutes. The absorption value at 450 nm is quantitated using an enzyme-labelling measuring instrument, and the data was analyzed and plotted using Origin pro 9 software.

[3] = target: T2, Mut3 heterozygous LIF protein (human LIF with residues 182-202 of …, UniProt P15018 23-201, limits assumed); test: western blot of 293T culture supernatants, primary antibody 38E10E1C11, HRP goat anti-mouse Fab
T2 construct: Secreted into the supernatant of transfected 293T cells; also called Mut3 protein

[4] = target: T3, Mut4 heterozygous LIF protein (human LIF with residues 166-202 of …, UniProt P15018 23-201, limits assumed); test: as above
T3 construct: Secreted into the supernatant of transfected 293T cells; also called Mut4 protein

[5] = target: T1, human LIF protein; test: competition ELISA: human LIF coated at 1 µg/mL, GP130-Fc 20 µg/mL added together with the antibody, A450
Description: The recombinant human LIF protein was coated on the enzyme label plates at a concentration of 1 μg/mL, GP130 protein (expressed fusedly with human FC) at a concentration of 20 μg/mL was added (50 μL/well), and the anti-human LIF antibodies P36-033 and 38E10E1C11 at different concentrations simultaneously were added separately (50 μL/well), and incubated for 2 h at room temperature. At the same time, the control wells added with antibodies and without GP130 protein were set. Incubated for 2 h at room temperature. After washed four times with PBST, incubated with HRP-labeled goat anti-mouse FC secondary antibody for 1 h at room temperature. Then the plates were washed four times with PBST and added with TMB coloured solution in for 10 minutes. The absorption value at 450 nm is quantitated using an enzyme-labelling measuring instrument, and the data was analyzed and plotted using Origin pro 9 software.

[6] = target: T1, human LIF protein; test: competition ELISA: human LIF coated at 1 µg/mL, LIFR-Fc 0.6125 µg/mL added together with the antibody, A450; remark: listed apart in the source
Description: as §1

EC50 (read off the curve) [1]: ~0.05 µg/mL
IC50 (read off the curve) [2]: ~0.1 µg/mL
binding result [3]: binds
binding result [4]: no binding
IC50 (read off the curve) [5]: ~0.6 µg/mL
IC50 (read off the curve) [6]: ~0.3 µg/mL
B1: 38E10E1C11 antibody (antibody, mouse IgG1, kappa)
heavy: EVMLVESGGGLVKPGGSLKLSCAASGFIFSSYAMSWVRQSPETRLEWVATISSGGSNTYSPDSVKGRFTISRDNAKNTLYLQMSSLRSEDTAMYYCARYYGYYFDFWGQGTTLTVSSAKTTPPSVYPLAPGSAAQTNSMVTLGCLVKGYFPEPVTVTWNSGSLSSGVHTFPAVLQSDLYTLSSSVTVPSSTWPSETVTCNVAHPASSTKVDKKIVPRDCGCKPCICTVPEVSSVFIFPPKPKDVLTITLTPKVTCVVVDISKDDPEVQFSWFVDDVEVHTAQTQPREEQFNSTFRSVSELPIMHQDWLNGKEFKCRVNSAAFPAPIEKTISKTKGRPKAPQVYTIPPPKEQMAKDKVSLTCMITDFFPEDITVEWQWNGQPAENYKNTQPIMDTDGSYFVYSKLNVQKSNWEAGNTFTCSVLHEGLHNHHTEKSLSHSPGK
light: DIHMTQSPASLSASVGETVTITCRASENIYSYLAWYQQKQGKSPQLLVYNAKTLAEGVPSRFSGSGSGTQFSLKINSLQPEDFGSYYCQHHYVTPLTFGAGTKLELKRADAAPTVSIFPPSSEQLTSGGASVVCFLNNFYPKDINVKWKIDGSERQNGVLNSWTDQDSKDSTYSMSSTLTLTKDEYERHNSYTCEATHKTSTSPIVKSFNRNEC
notes: Mouse IgG1, kappa light chain; also called 38E10E1C11 mAb; mAb38E10E1C11
